Reference: paper PMC3463532

Legend:
[1] = target: Dictyostelium discoideum p97^R155C, purified recombinant (D. discoideum) (UniProt P90532); experiment: native gel or EMSA; blue native PAGE (BN-PAGE) of the affinity purified recombinant protein, Coomassie staining; SDS-PAGE beside it; monomers to hexamer
[2] = target: Dictyostelium discoideum p97, purified recombinant wild-type (D. discoideum) (UniProt P90532); experiment: as above

| stoichiometry N [1] | stoichiometry N [2] | Substance |
| --- | --- | --- |
| 6 | – | Dictyostelium discoideum p97^R155C, purified recombinant (from UniProt P90532 1-793) (natural protein) |
| – | 6 | Dictyostelium discoideum p97, purified recombinant wild-type (from UniProt P90532 1-793) (natural protein) |
